The results in this text go back to publication PMC8191317, “Structural and functional analysis of lignostilbene dioxygenases from Sphingobium sp. SYK-6” (The Journal of Biological Chemistry, 2021).

Data set [1] addresses LSD4 (lignostilbene-α,β-dioxygenase 4) from Sphingobium sp. SYK-6 (Sphingobium sp. SYK-6). The data set can be described thus: SEC-MALS; LSD4 at 2 mg/ml in 20 mM HEPES, pH 7.5, 100 mM NaCl, Superdex 75 10/300 GL, 0.4 ml/min, room temperature.
The next data set deals with T1, LSD5 (Sphingobium sp. SYK-6, UniProt G2IKS0).
T1 construct: gene SLG_27970; pET41b, E. coli BL21(DE3) lysate
T1 sequence (G2IKS0 1-492): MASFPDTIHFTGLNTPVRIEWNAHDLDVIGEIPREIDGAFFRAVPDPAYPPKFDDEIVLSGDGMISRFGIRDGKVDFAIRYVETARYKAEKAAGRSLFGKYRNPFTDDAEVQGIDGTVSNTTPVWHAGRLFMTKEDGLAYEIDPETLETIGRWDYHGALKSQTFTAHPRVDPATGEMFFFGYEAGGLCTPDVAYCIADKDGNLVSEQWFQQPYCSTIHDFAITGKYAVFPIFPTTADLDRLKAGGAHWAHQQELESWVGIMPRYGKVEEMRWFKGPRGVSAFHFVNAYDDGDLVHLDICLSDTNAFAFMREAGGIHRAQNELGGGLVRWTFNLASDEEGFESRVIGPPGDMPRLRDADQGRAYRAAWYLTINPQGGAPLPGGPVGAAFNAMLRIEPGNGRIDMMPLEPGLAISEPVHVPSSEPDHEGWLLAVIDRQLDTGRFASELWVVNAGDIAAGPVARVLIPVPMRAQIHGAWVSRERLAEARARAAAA
The data set can be described thus: oxygraph O2 consumption, E. coli lysate. It is filed as biochemical. The settings on record: 100 μM substrate.

In the next data set the target is T2, LSD3 (Sphingobium sp. SYK-6, UniProt G2IPX7).
T2 construct: gene SLG_11300; pET41b, E. coli BL21(DE3) lysate
T2 sequence (G2IPX7 1-491): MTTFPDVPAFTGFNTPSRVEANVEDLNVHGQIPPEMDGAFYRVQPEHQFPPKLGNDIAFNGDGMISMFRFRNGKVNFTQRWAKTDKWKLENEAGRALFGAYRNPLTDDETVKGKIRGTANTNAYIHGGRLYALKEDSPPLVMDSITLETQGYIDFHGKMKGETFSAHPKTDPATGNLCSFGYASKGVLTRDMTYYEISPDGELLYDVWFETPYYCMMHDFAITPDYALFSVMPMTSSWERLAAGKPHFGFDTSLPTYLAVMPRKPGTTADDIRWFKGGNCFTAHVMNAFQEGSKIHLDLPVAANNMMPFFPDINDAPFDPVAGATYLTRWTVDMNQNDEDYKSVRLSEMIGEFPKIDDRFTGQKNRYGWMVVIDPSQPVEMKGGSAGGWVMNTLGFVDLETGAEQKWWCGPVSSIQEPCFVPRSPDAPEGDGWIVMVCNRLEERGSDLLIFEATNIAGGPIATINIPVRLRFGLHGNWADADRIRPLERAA
The data set can be described thus: oxygraph O2 consumption, E. coli lysate. The settings on record: 100 μM substrate. It is filed as biochemical.

In another data set the target is T3, LSD1 (Sphingobium sp. SYK-6, UniProt G2IR63).
T3 construct: gene SLG_37540; pET41b, E. coli BL21(DE3) lysate, co-produced with GroEL/GroES
T3 sequence (G2IR63 1-486): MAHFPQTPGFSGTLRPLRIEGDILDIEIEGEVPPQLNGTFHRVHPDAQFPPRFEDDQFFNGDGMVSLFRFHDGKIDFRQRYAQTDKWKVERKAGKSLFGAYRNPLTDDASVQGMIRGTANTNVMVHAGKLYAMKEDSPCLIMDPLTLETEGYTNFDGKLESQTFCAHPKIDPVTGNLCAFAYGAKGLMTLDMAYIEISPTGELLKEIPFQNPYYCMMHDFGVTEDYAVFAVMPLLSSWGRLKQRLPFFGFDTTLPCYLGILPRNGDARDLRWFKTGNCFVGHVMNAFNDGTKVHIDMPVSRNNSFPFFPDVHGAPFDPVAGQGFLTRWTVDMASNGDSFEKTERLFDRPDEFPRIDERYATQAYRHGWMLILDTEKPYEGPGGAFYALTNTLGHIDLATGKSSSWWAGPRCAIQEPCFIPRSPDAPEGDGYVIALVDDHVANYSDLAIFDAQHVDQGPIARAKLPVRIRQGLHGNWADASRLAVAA
Nature of the data set: oxygraph O2 consumption, E. coli lysate. It is filed as biochemical. The settings on record: 100 μM substrate.

The target in the next data set is T4, LSD2 (Sphingobium sp. SYK-6, UniProt G2IQG5).
T4 construct: gene SLG_36640; pET41b, E. coli BL21(DE3) lysate, co-produced with GroEL/GroES
T4 sequence (G2IQG5 1-490): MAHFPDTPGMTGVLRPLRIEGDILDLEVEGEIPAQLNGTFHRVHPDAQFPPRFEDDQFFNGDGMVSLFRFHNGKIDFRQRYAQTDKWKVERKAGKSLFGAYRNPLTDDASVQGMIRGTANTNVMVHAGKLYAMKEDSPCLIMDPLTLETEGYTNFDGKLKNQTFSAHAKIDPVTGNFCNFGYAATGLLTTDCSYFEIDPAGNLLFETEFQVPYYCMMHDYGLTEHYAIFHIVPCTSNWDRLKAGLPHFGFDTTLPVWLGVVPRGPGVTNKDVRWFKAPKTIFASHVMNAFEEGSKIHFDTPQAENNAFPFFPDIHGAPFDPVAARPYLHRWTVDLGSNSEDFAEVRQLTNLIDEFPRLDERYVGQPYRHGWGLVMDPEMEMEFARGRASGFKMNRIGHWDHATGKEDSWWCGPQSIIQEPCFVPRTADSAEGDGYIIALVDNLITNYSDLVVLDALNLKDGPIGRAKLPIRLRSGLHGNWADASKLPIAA
Nature of the data set: oxygraph O2 consumption, E. coli lysate. It is filed as biochemical. The settings on record: 100 μM substrate.

The target of another data set is T5, LSD7 (Sphingobium sp. SYK-6, UniProt G2INY0).
T5 construct: gene SLG_09440; pET41b, E. coli BL21(DE3) lysate
T5 sequence (G2INY0 1-483): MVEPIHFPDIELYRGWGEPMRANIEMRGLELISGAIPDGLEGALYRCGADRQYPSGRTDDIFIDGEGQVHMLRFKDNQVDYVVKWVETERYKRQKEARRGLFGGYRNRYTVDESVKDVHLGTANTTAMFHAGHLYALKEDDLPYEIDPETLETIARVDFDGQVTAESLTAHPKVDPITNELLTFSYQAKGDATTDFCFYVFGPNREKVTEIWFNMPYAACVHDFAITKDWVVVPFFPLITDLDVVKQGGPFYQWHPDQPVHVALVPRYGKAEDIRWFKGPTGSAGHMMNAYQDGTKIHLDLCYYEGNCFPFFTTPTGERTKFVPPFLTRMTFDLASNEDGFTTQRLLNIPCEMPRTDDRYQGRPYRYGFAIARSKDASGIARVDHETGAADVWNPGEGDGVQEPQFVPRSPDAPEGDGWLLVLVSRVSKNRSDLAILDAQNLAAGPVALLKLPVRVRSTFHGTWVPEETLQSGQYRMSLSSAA
Nature of the data set: oxygraph O2 consumption, E. coli lysate. In kind it is biochemical. The settings on record: 100 μM substrate.

Another data set deals with T6, LSD6 (Sphingomonas paucimobilis, UniProt Q8RQW2).
T6 construct: gene lsdA; pET41b, E. coli BL21(DE3) lysate
T6 sequence (Q8RQW2 1-491): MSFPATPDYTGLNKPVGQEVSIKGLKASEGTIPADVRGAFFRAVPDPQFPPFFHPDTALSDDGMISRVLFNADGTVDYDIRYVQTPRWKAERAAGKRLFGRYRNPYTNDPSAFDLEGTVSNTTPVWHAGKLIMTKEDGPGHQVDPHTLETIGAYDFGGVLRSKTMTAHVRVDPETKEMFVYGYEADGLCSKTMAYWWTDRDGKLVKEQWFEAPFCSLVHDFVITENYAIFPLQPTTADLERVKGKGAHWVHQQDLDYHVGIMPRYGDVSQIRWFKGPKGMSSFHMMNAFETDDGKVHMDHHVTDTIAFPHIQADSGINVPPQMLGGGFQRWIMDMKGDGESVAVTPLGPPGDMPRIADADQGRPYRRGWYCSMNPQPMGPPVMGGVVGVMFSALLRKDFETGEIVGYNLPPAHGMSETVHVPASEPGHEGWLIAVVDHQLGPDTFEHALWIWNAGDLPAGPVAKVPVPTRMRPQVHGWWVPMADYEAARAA
The data set can be described thus: oxygraph O2 consumption, E. coli lysate. In kind it is biochemical. The settings on record: 100 μM substrate.

Substrate in data set [2]: COc1cc(/C=C/c2cc(/C=C/C(=O)O)cc(OC)c2O)ccc1O
Nature of the data set: O2 electrode (oxygraph) steady-state kinetics. The settings on record: air-saturated HEPES I = 0.1 M, pH 7.5, 25 °C. It is filed as biochemical, Sphingobium sp. SYK-6. The source says:
(§1) O2 electrode (oxygraph) steady-state kinetics on LSD4

Substrate in data set [3]: COc1cc(/C=C/c2ccc(O)c(OC)c2)ccc1O
The data set can be described thus: O2 electrode (oxygraph) steady-state kinetics. It is filed as biochemical, Sphingobium sp. SYK-6. The settings on record: air-saturated HEPES I = 0.1 M, pH 7.5, 25 °C.
From the text: as §1

Substrate in data set [4]: COc1cc(/C=C/c2ccc(O)cc2)cc(OC)c1
The data set can be described thus: O2 electrode (oxygraph) steady-state kinetics. The settings on record: air-saturated HEPES I = 0.1 M, pH 7.5, 25 °C. It is filed as biochemical, Sphingobium sp. SYK-6.
From the text: as §1

Substrate in data set [5]: Oc1ccc(/C=C/c2cc(O)cc(O)c2)cc1
The data set can be described thus: O2 electrode (oxygraph) steady-state kinetics. It is filed as biochemical, Sphingobium sp. SYK-6. The settings on record: air-saturated HEPES I = 0.1 M, pH 7.5, 25 °C.
From the text: as §1

Numbering of substitutions follows the chain as printed. Numbers in names are those of the source.

For the molecule “LSD4 (lignostilbene-α,β-dioxygenase 4) from Sphingobium sp. SYK-6 (enzyme)”, the stoichiometry N in data set [1] was 2.

As for `COc1cc(/C=C/c2ccc(O)c(OC)c2)ccc1O` [compound 2, lignostilbene], the relative activity entry at LSD5 was “cell lysates containing LSD1, LSD5, LSD6, or LSD7 preferentially cleaved lignostilbene over DCA-S”; on LSD3, “The seven soluble enzymes all cleaved lignostilbene”; at LSD1 it was “cell lysates containing LSD1, LSD5, LSD6, or LSD7 preferentially cleaved lignostilbene over DCA-S”; on LSD2, “The seven soluble enzymes all cleaved lignostilbene”; on LSD7, “cell lysates containing LSD1, LSD5, LSD6, or LSD7 preferentially cleaved lignostilbene over DCA-S”; on LSD6 it was “cell lysates containing LSD1, LSD5, LSD6, or LSD7 preferentially cleaved lignostilbene over DCA-S”.

As for `COc1cc(/C=C/c2cc(/C=C/C(=O)O)cc(OC)c2O)ccc1O` [compound 1, 3-(4-hydroxy-3-(4-hydroxy-3-methoxystyryl)-5-methoxyphenyl) acrylate], the relative activity entry was “lysates containing LSD2, LSD3, or LSD4 preferentially cleaved DCA-S over lignostilbene” on LSD3 and “lysates containing LSD2, LSD3, or LSD4 preferentially cleaved DCA-S over lignostilbene” at LSD2.

B1: LSD4 (Sphingobium sp. SYK-6) (protein)
chain: MAHFPDTPAFTGFNAPSRIECDIPNLVHEGTIPPELNGAFFRVQPDPQFPPRLGDDISFNGDGMITRFHIHDGQCDIKQRWAKTNKWKLENAAGKALFGSYRNPLTDDESVKGEYRSTANTNAFVFAGKLWAMKEDSPSLTMDPATMETFGFEKFGGKMTGQTFTAHPKVDPLTGNMVAIGYAASGLCTDDVCLYEISPDGELIYEAWFKVPYYCMMHDFGVTKDYLVLHIVPSIGSWDRLEKGLPHFGFDTTLPVYLGIIPRRADLKQEDIRWFKRENCFASHVMNAFQEGTKVHVDVPEAENNMFPFFPDVHGAPFNPQQAMSRLTRWTVDMASNSDEFDSVTRLTETAGEFPRIDDRMTGLPYRYGWMLEMDMKRPVELKGGSAGGFLMNCLFLKDHQTGAEQHWWCGPTSSLQEPAFIPRSKDAPEGDGWIVQVCNRLADHKSDLLIFEALDIEKGPVATVHLPFALRFGLHGNWANAEEIGLAA
notes: residues 2-489 modelled; Fe2+ enzyme, Co-LSD4 for complexes
On to B1, for which the Km in [2] came out at 12 ± 1 µM; in [3], 13 ± 1 µM; in [4] it was 15 ± 2 µM; in data set [5] it was 22 ± 2 µM. Besides, the kcat in [2] came to 11 ± 1 s⁻¹; in [3], 18 ± 1 s⁻¹; in [4], 1.9 ± 0.1 s⁻¹; in data set [5] it was 2.1 ± 0.1 s⁻¹. Also, the kcat/Km in [2] was determined as 900000 ± 100000 M⁻¹ s⁻¹; in [3], 1.4e+06 ± 100000 M⁻¹ s⁻¹; in data set [4], 130000 ± 10000 M⁻¹ s⁻¹; in data set [5], 90000 ± 10000 M⁻¹ s⁻¹.

B2: LSD4 (Sphingobium sp. SYK-6; S283F) (protein)
chain: B1 chain with S283F
notes: as for B1
Take B2: in [2], the Km was 2.7 ± 0.5 µM, the kcat was 0.035 ± 0.001 s⁻¹ and the kcat/Km came to 13000 ± 5000 M⁻¹ s⁻¹. Besides, in [3], the Km was found to be 8.5 ± 0.7 µM, the kcat is 0.14 ± 0.01 s⁻¹ and the kcat/Km was 16000 ± 2000 M⁻¹ s⁻¹.

B3: LSD4 (Sphingobium sp. SYK-6; S283A) (protein)
chain: B1 chain with S283A
notes: as for B1
Regarding B3, in [2], the Km stood at 4.6 ± 0.5 µM, the kcat worked out at 4.1 ± 0.1 s⁻¹ and the kcat/Km turned out to be 900000 ± 100000 M⁻¹ s⁻¹. Moreover, in data set [3], the Michaelis-Menten constant (Km) came to 10 ± 1 µM, the kcat came out at 15.3 ± 0.4 s⁻¹ and the kcat/Km was determined as 1.5e+06 ± 100000 M⁻¹ s⁻¹.
